# Measured values from patent publication US20170296650A1 (Novartis, published 2017).
# Experiments:
# [1] = target: T1, hCMV gH + gL + UL128 + UL130 + UL131A (5-member complex; HEK293T co-transfectant) (hCMV, UniProt P12824 24-743; P16832 31-278; P16837 1-171; P16772 1-214); assay: cell competition; competitor 10F7-biotin
# T1 construct: whole, on cells; in the functional rows it stands for the complex on virions or transduced cells of the strain or isolate named in the readout; also called gH/gL/UL128-131A complex; pentameric complex
# [2] = target: T2, hCMV UL130 + UL131A (HEK293T co-transfectant) (hCMV, UniProt P16772 1-214); assay: cell-based or functional assay
# T2 sequence (P16772 whole entry): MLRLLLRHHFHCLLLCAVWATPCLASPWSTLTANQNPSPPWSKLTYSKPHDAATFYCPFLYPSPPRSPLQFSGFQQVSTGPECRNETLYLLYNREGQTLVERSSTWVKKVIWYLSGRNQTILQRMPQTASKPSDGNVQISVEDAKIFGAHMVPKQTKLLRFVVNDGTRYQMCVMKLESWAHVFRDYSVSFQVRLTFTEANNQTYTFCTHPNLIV
# [3] = target: T2, hCMV UL130 + UL131A (HEK293T …); assay: cell-based or functional assay; remark: listed apart in the source
# [4] = target: T1, hCMV gH + gL + UL128 + UL130 + UL131A …; assay: cell competition; competitor 1F11-biotin
# [5] = target: T1, hCMV gH + gL + UL128 + UL130 + UL131A …; assay: cell competition; competitor 2C12-biotin
# [6] = target: T1, hCMV gH + gL + UL128 + UL130 + UL131A …; assay: cell competition; competitor 6G4-biotin
# [7] = target: T3, hCMV UL128 + UL130 + UL131A (HEK293T co-transfectant) (hCMV, UniProt P16837 1-171; P16772 1-214); assay: cell-based or functional assay
# T3 sequence (P16837 whole entry, chain 1 of 2): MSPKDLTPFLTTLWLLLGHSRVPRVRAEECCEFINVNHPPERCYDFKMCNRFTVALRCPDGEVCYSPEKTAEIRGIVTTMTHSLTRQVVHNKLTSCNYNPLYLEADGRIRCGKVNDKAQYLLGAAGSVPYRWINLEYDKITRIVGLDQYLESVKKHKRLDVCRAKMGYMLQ
# T3 sequence (P16772 whole entry, chain 2 of 2): as the sequence (P16772 whole entry) above
# [8] = target: T3, hCMV UL128 + UL130 + UL131A (HEK293T …); assay: cell-based or functional assay; remark: listed apart in the source
# [9] = target: T1, hCMV gH + gL + UL128 + UL130 + UL131A …; assay: cell competition; competitor 9I6-biotin
# [10] = target: T1, hCMV gH + gL + UL128 + UL130 + UL131A …; assay: cell competition; competitor 8C15-biotin
# [11] = target: T1, hCMV gH + gL + UL128 + UL130 + UL131A …; assay: cell competition; competitor 8J16-biotin
# [12] = target: T1, hCMV gH + gL + UL128 + UL130 + UL131A …; assay: cell competition; competitor 8I21-biotin
# [13] = target: T1, hCMV gH + gL + UL128 + UL130 + UL131A …; assay: cell competition; competitor 4N10-biotin
# [14] = target: T1, hCMV gH + gL + UL128 + UL130 + UL131A …; assay: cell competition; competitor 5A2-biotin
# [15] = target: T1, hCMV gH + gL + UL128 + UL130 + UL131A …; assay: cell competition; competitor 4I22-biotin
# [16] = target: T1, hCMV gH + gL + UL128 + UL130 + UL131A …; assay: cell competition; competitor 2F4-biotin
# [17] = target: T1, hCMV gH + gL + UL128 + UL130 + UL131A …; assay: cell competition; competitor 15D8-biotin
# [18] = target: T4, hCMV gH (HEK293T transfectant) (hCMV, UniProt P12824 24-743); assay: cell-based or functional assay
# [19] = target: T4, hCMV gH (HEK293T transfectant); assay: cell-based or functional assay; remark: listed apart in the source
Binder,Inhibition of binding (%) [1],"90% neutralization VR1814, ARPE [2]","90% neutralization VR1814, MRC-9 [2]","50% neutralization VR1814, ARPE [3]","50% neutralization VR1814, MRC-9 [3]",Inhibition of binding (%) [4],Inhibition of binding (%) [5],Inhibition of binding (%) [6],Inhibition of binding (%) [12],Inhibition of binding (%) [15],Inhibition of binding (%) [16],Inhibition of binding (%) [17],"90% neutralization VR1814, ARPE [18]","90% neutralization VR1814, MRC-9 [18]","50% neutralization VR1814, ARPE [19]","50% neutralization VR1814, MRC-9 [19]",also measured
"8L13 (antibody, V domains shown, human IgG) VH: QVQLLESGGGVVQPGRSLRLSCAASGFTFSNYGMHWVRQAPGKGLEWVAVIWNDGSKKYYAESVKGRFTISRDNSKNTVYLQMNSLRAEDTAVYYCARDEGVQMVFAMPDYGMDVWGQGTTVTVSS VL: SYELTQPPSVSVSPGQTASITCSGDKLGDKFACWYQQRPGQSPILVIYQDSKRPSGIPERFSGSNSGNTATLTIRGTQAMDEADYYCQAWDSSTAHYVFGTGTKVTVL",100%,0.001 µg/mL,> 10 µg/mL,< 0.01 µg/mL,> 2 µg/mL,100%,,,,,,,,,,,
"7B13 (antibody, V domains shown, human IgG) VH: QVQLVESGGGVVQPGGSLRLSCAASGFSFSNYGMHWVRQAPGKGLEWVALIPSDGNYQYYTDSVKGRFTVSRDNSRNTLYLQMKSLRAEDTARYHCAHLGGGLFDFWGQGTLVTVSS VL: QSALNQPRSVSGSPGQSVSISCTGSSSDVGGYEFVSWYQHHPGKAPKLIIYDVDKRPSGVPDRFSGSRSGDTASLTISGLQAEDEADYYCYSSADTWVFGGGTKLTVL",,,,,,,100%,100%,0%,,,,,,,,"90% neutralization VR1814, ARPE [7]: 0.003 µg/mL; 90% neutralization VR1814, MRC-9 [7]: > 10 µg/mL; 50% neutralization VR1814, ARPE [8]: < 0.001 µg/mL; 50% neutralization VR1814, MRC-9 [8]: > 2 µg/mL; Inhibition of binding (%) [9]: 100%; Inhibition of binding (%) [10]: 100%; Inhibition of binding (%) [11]: 100%"
"10F7 (antibody, V domains shown, human IgG; also called 10F7-biotin) VH: EVQLVESGGGLVQPGRSLRLSCTASGFTFGDYAMSWFRQAPGKGLEWVGFIRSKAYGGTTEYAASVKGRFTISRDDSKSIAYLQMNSLKTEDTAVYYCTRASSLLWLLNPQPNFDYWGQGTLVTVSS VL: SYVLTQPPSVSVAPGQTARITCGGNNIGSNNVHWYQQKPGQAPVLVVYDDSDRPSGIPERFSGSNSGNTATLTISRVEAGDEADYYCQVWDSSSDHPVFGGGTKLTVL",100%,0.002 µg/mL,> 10 µg/mL,< 0.01 µg/mL,≤ 2 µg/mL,100%,0%,0%,0%,100%,100%,0%,,,,,Inhibition of binding (%) [13]: 0%; Inhibition of binding (%) [14]: 0%
"10P3 (antibody, V domains shown, human IgG) VH: EVQLVESGGGLVRPGGSLRLSCAASGFTFHNYRMNWVRQAPGKGLEWVANIKQDGSEKSYVDSVRGRFTTSRDNSKNSLYLQINSLRAEDTAVYYCARGEGYTYGVVYSYSAMDVWGQGTTVIVSS VL: SYELTQPPSVSVSPGQTARITCSGNVLPNQYASWYQQKPGQAPVLVIYKDTERPSGIPGRFSGSSSGTTVTLTISGVQAEDEADYYCQSADSSGADYVFGTGTKVTVL",,0.0025 µg/mL,> 10 µg/mL,< 0.001 µg/mL,> 2 µg/mL,0%,0%,0%,0%,0%,0%,0%,,,,,
"13H11 (antibody, V domains shown) VH: QVQLVQSGAEVKKPGASVKVSCKASGYTFTNYYIHWVRQAPGQGLEWMGIIHPSSGGTSYAQKFQGRVTMTRDTSTSTVSMDLSSLRSEDTAVYYCGRAFRILGLSDVFVNDWGQGTVVTVSS VL: DIQMTQSPSSLSASVGDRVTITCRASQGINNYLAWYQQKPGKVPKLLIYAASTLQSGVPSRFSGSGSGTAFTLTILSLQPEDVATYYCQKYNSAPFTFGPGTKVDIK",,,,,,,,,,,,,0.4 µg/mL,1.12 µg/mL,< 0.01 µg/mL,≤ 2 µg/mL,
"11B12 (antibody, V domains shown) VH: QMQLVQSGPQVKKPGTSVKVSCKASGFTFTSSAMQWVRQARGQRPEWIGWIVLGSGNTNYAQKFQERVTLTRDMSTATAYMELSSLRSEDTAVYYCAADRGRGGYNVYTYWGQGTLVAVSS VL: EIVMTQSPGTLSLSPGERATLSCRASQTISNTYVAWYQQKPGQAPRLLIYGASSRATGIPDRFSGSGSGTDFTLTIRRLEPEDFAVYYCQQNGQSPWTFGQGTNVEIK",,,,,,,,,,,,,1.2 µg/mL,3.5 µg/mL,≤ 2 µg/mL,≤ 2 µg/mL,
"4N10 (antibody, V domains shown, human IgG; also called 4N10-biotin) VH: QVQLVQSGAEVKKPGSSVRVSCKASGGTFSSYVIIWVRQAPGQGLEWMGGVIPIFDTVNYAQKFQGRVTITADESTSTAYMELSSLKSEDTAVYYCARGILAYCGGDCYNTPYGMDVWGQGTTVTVSS VL: DIQMTQSPSILSASVGDRVTITCRASQSISSWLAWYQQKPGKAPKLLIYKASSLEIGVPSRISGSGSGTEFTLTISSLQPDDFATYYCQQYNSSWTFGQGTKVEIK",0%,0.02 µg/mL,> 10 µg/mL,< 0.001 µg/mL,≤ 2 µg/mL,0%,0%,0%,90%,0%,0%,0%,,,,,Inhibition of binding (%) [13]: 100%; Inhibition of binding (%) [14]: 100%
"3G16 (antibody, V domains shown, human IgG; also called 3G16-biotin) VH: QSALTQPASVSGSPGESITISCTGTISDVGAYNSVSWYQQHSGTAPELIIYDVTNRPAGVSSRFSGSKSGNTASLTISWLQSEDEAEYYCSSYTTSDTYVFGSGTQVTVL V domain: RAQLVQSAAEMKNPGASVKVSCEASGYTFTGYYVHWMRQAPGQGLEWMGWINPMTGATKSPQKFQGRVTMTRDTSTTATHIELTRLRSDDSAVFFCARGGPTSTRITGKRHFDLWGRGTLITVAS",,,,,,,0%,0%,0%,,,,0.3 µg/mL,1 µg/mL,≤ 2 µg/mL,≤ 2 µg/mL,
